According to publication PMC11533912 (Journal of Nuclear Medicine, 2024):
Entries after “also recorded” stand apart in the source; their conditions may differ.

Experiments:
[1] = in vivo
[2] = Biodistribution in tumor-free CD-1 mice; format: in vivo
[3] = Biodistribution at different specific activity (28, 140, 280 ng peptide); format: in vivo, PC-3 tumor-bearing mice
Protocol: (§1) For all tumor studies, 1 × 10^6 PC-3 cells were implanted subcutaneously into the right flank of each mouse in a mixture of equal volumes of HC-Matrigel (high concentration; Corning) and RPMI medium (Gibco) and grown to a volume of about 200–300 mm^3.
(§2) PC-3 tumors were grown in male mice until an approximate tumor volume of 300 mm^3 was reached. […] The background was automatically subtracted from the counts. A standard was also used for decay correction, and the percent injected dose (%ID) per gram of tissue was calculated for each organ collected.
(§3) FIGURE 3. In vivo distribution of [^212Pb]Pb-DOTAM-GRPR1. (A) In athymic nude male mice carrying subcutaneous PC-3 tumors, 370 kBq of drug were administered and organs were collected from 5 mice per time point: 1, 4, and 24 h after injection. (B) At different specific activity in PC-3 tumor-bearing mice, 370 kBq per 28, 140, or 280 ng of DOTAM-GRPR1 were administered and organs were collected from 5 mice per time point: 1, 4, and 24 h after injection. Tissue uptake is expressed as %ID/g ± SD (n = 5). All tissues with uptake below 2% at 1 h were excluded from graph. ***P = 0.00013 between 280 ng of pancreas and 28 ng of pancreas.

[4] = Radio-HPLC stability/oxidation of drug product with and without excipients; format: physicochemical
Protocol: DOTAM-GRPR1 (C77H119N23O17, Fig. 1) was manufactured by Macrocyclics using Fmoc solid-phase peptide synthesis. The peptide was isolated via reverse-phase high-performance liquid chromatography. Chelation was achieved by adding ^212Pb in ammonium acetate (Sigma-Aldrich) to DOTAM-GRPR1 alone or in the presence of 5% ethanol (Spectrum Chemical), up to 30 mM ascorbic acid (Honeywell), and 0.02% polysorbate 80 (J.T. Baker). Experiments were conducted for 10 min at either room temperature or 50°C.
Fractions were collected from the column every 6–10 s for up to 10 min and then analyzed for radiometric detection using an automatic γ-counter (Perkin Elmer Wizard^2 2470).
FIGURE 4. Radio–high-performance liquid chromatography showing optimized formulation conditions compared with no excipients added to chelation reaction. When chelation occurs with just ^212Pb and peptide, oxidation is visible at time of 0 h with percent main peak of 91% (A), which becomes unquantifiable at time of 24 h (B). However, with addition of ethanol, ascorbic acid, and polysorbate 80, percent main peak is 96% at time of 0 h (C) and remains high at 94% after 24 h (D). CPM = counts per minute; N/A = not applicable; T = time. […]

[5] = Toxicity (dose escalation) study in tumor-free nude mice
Protocol: Control mice received buffer only. Animals were weighed 3 times per week and monitored daily for signs of pain or distress over a 4-wk period after the last injection. Blood was sampled via the submandibular vein using potassium–ethylenediaminetetraacetic acid capillaries and tubes (Greiner Bio-One), and complete cell blood counts were performed using a VETSCAN HM5 hematology analyzer (Abaxis/Zoetis). Animals were euthanized at the scheduled termination or when the termination criteria were met.
Mice were euthanized when tumor volumes reached 1,000 mm^3 (length × width × height) or other predetermined termination criteria were met (weight loss > 15% for 2 consecutive days or 20% weight loss from initial weight, serious bleeding, necrosis or ulceration of the tumor, scruffiness or lack of grooming over 5 d, lethargy over 3 d, weakness/balance issues over 5 d, hunchback appearance, diarrhea, or hypothermia).

[6] = in vivo; remark: listed apart in the source
[7] = Biodistribution in PC-3 tumor-bearing mice; format: in vivo, athymic nude male mice
Protocol: as §1, §2, §3

[8] = 370 kBq per 28, 140 or 280 ng DOTAM-GRPR1, PC-3 tumor-bearing mice

CC(C)C[C@H](NC(=O)C[C@H](O)[C@H](CC(C)C)NC(=O)[C@H](Cc1c[nH]cn1)NC(=O)CNC(=O)[C@@H](NC(=O)[C@H](C)NC(=O)[C@H](Cc1c[nH]c2ccccc12)NC(=O)[C@H](CCC(N)=O)NC(=O)[C@@H](Cc1ccccc1)NC(=O)CCNC(=O)CCNC(=O)CN1CCN(CC(N)=O)CCN(CC(N)=O)CCN(CC(N)=O)CC1)C(C)C)C(N)=O [[^212Pb]Pb-DOTAM-GRPR1, metal not drawn]
Route of excretion [1]: predominantly renal route of excretion | Pancreas and kidney accumulation at 24 h ([2]; 24 h after injection, pancreas and kidneys, strain not clearly stated): significantly less accumulation by 24 h after injection | tissue uptake at 4 h ([2]; mouse, all tissues, intravenous, 4 h after drug administration, tumor-free CD-1 mice, 'well below'): < 10 %ID/g | Nontarget uptake ranking ([2]; pancreas and kidneys, strain not clearly stated): The pancreas and kidneys showed the highest nontarget uptake | Biodistribution profile / accumulation in normal organs ([2]; tumor-free CD-1 mice): did not reveal any unexpected accumulation in normal organs | Effect of low specific activity on tumor uptake [3, 8]: did not negatively impact tumor uptake | Effect of lowering specific activity on off-target accumulation [3, 8]: low specific activity reduced off-target accumulation; also recorded: further reduced off-target accumulation, especially in the pancreas | Reduction of pancreatic uptake on increasing peptide amount from 28 to 280 ng ([3]; 370 kBq per 28 vs 280 ng DOTAM-GRPR1, PC-3 tumor-bearing mice, n = 5 per time point, P = 0.00013): about 30% | Stability in optimized chelation formulation [4]: increased the stability of the drug well beyond 24 h | Hematologic toxicity or weight loss ([5]; 1,665 kBq, 30 d, athymic nude male mice): no hematologic toxicity or weight loss | Survival in acute toxicity study ([5]; 1,665 kBq, full 30-d period, athymic nude male mice): all animals survived for the full 30-d period | Histopathologic examination ([5]; all groups, male athymic nude mice): all groups were essentially within the normal limits | Tolerability / signs of radiation or lead injury ([5]; doses used, 370–1,665 kBq single or 3 × 370 or 555 kBq, male athymic nude mice): well tolerated at the doses used, with no signs of radiation or lead injury | Body weight loss ([5]; highest dose: single 1,665 kBq or 3 fractionated doses of 555 kBq, tumor-free nude male mice): body weight loss was minimal after administration and was followed by body weight gain | Kidneys, gastrointestinal mucosa, bone marrow and other organs ([5]; histopathology, male athymic nude mice): unremarkable | Toxic dose ([5]; male athymic nude mice, intravenous): more than 1,665 kBq | Nontoxic dose ([5]; up to, mice, intravenous): up to 1,665 kBq | Effect of renal blockers on kidney retention [6]: neither agent reduced the kidney retention | PC-3 tumor uptake over time ([7]; 4–24 h after administration, 370 kBq, intravenous, athymic nude male mice, n = 5 per time point): remained constant for 4–24 h after drug administration | Washout, pancreas versus tumor ([7]; PC-3 tumor-bearing mice): faster washout was observed from the pancreas than from tumor tissues | tissue uptake at 1 h ([7]; mouse, PC-3 tumor, 1 h after administration, 370 kBq, intravenous (tail vein), athymic nude male mice, n = 5 per time point): ~5 %ID/g | Biodistribution profile, activity in nontumor tissues ([7]; nonclinical, mice): safe biodistribution profile with a considerably low activity in nontumor tissues | Tumor targeting ([7]; up to value, over 24 h, intravenous, GRPR-positive prostate tumor-bearing mice): up to 5 percent injected dose per gram | Kidney uptake compared with radiolabeled somatostatin receptor ligands such as [^212Pb]Pb-DOTAMTATE with renal blocker ([7]; without renal blocker, comparator ref 9): well below kidney retention values of radiolabeled somatostatin receptors ligands
